Test results: patent US20040253247A1 (Genentech, published 2004)

What was measured:
human albumin = human albumin (human, UniProt P02768 25-609); assay: phage ELISA
Description: (§1) Phage ELISA—Phage clones (˜10¹¹ phage) were added to plates coated with rat, rabbit or human albumin. The microtiter plate was washed with wash buffer and bound phage were detected with HRP/Anti-M13 Conjugate. The amount of HRP bound was measured using ABTS/H₂O₂ substrate and monitoring the change at 405 nm.

rabbit albumin = rabbit albumin (rabbit, UniProt P49065 25-608); assay: phage ELISA
Description: as §1

IgG-Fc = target: T1, IgG-Fc (UniProt P01857-1 108-330 = IgG part, limits assumed); assay: phage ELISA, M13/gIII display
T1 construct: domain: IgG-Fc; also called biotinylated-IgG-Fc; biotin-IgG-Fc

rabbit albumin, sequence (P49065 25-608 limits assumed): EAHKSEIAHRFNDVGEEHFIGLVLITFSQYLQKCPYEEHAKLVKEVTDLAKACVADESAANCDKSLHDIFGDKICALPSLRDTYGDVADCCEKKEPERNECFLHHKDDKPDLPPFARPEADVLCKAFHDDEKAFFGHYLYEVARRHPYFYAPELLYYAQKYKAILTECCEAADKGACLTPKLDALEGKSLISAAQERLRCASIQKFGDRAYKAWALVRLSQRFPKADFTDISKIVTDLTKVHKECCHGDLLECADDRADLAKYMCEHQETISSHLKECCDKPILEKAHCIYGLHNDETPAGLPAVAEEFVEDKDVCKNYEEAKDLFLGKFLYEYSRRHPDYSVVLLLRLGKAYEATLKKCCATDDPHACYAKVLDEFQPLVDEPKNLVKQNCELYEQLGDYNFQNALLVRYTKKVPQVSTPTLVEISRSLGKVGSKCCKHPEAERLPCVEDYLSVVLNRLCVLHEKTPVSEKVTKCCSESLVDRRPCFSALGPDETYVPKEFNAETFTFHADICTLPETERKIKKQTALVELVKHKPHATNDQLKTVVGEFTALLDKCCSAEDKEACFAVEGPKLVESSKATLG

QRLMWEICLPLWGCLWGDGL (phage clone, Library RB) [RB-R5]
binding result (human albumin): no binding
binding result (rabbit albumin): no binding

B1: phage clone WEADCAWHLGELVWCTKVEE (peptide)
peptide: WEADCAWHLGELVWCTKVEE
notes: M13/gIII phage display; Secondary Optimization
EC50 (IgG-Fc): 7 nM

B2: phage clone GEADCAWHLGELVWCTKVEE (peptide)
peptide: GEADCAWHLGELVWCTKVEE
notes: as for B1
EC50 (IgG-Fc): 38 nM

EWDVCFPAWGCLWDQ (phage clone, Library RBC) [RBC-R18]
binding result (human albumin): no binding
binding result (rabbit albumin): no binding

DICLPVWGCLW (phage clone, Library RC) [RC-R3]
binding result (human albumin): no binding
binding result (rabbit albumin): no binding

DTCSDLVGLGLECWA (phage clone, Library RD) [RD-R1]
binding result (human albumin): no binding
binding result (rabbit albumin): no binding

QGYMVDFCLPRWGCLWGDAN (phage clone, Library RB) [RB-R12]
binding result (human albumin): no binding

GRQVVDFCLPKWGCLWEEGL (phage clone, Library RB) [RB-R2]
binding result (human albumin): no binding
binding result (rabbit albumin): no binding

B3: phage clone KEADCAWHLGELVWCVAGVE (peptide)
peptide: KEADCAWHLGELVWCVAGVE
notes: M13/gIII phage display; Focused Libraries
EC50 (IgG-Fc): 138 nM

QMQMSDFCLPQWGCLWGDGY (phage clone, Library RB) [RB-R3]
binding result (human albumin): no binding
binding result (rabbit albumin): no binding

EFDLCLPTWGCLWED (phage clone, Library RBC) [RBC-R13]
binding result (human albumin): no binding
binding result (rabbit albumin): no binding

MDDLCLPNWGCLWGD (phage clone, Library RBC) [RBC-R2]
binding result (human albumin): no binding
binding result (rabbit albumin): no binding

DTCDDLVQLGLECWA (phage clone, Library RD) [RD-R11]
binding result (human albumin): no binding
binding result (rabbit albumin): no binding

DICLPVWGCLW (phage clone, Library RC) [RC-R18]
binding result (human albumin): no binding
binding result (rabbit albumin): no binding

DICLPVWGCLW (phage clone, Library RC) [RC-R2]
binding result (human albumin): no binding
binding result (rabbit albumin): no binding

FEDLCVVRWGCLWGD (phage clone, Library RBC) [RBC-R6]
binding result (human albumin): no binding
binding result (rabbit albumin): no binding

DTCEDLVRLGLECWA (phage clone, Library RD) [RD-R5]
binding result (human albumin): no binding
binding result (rabbit albumin): no binding

NTCADLVRLGLECWA (phage clone, Library RD) [RD-R7]
binding result (human albumin): no binding
binding result (rabbit albumin): no binding

MWDVCFPDWGCLWDV (phage clone, Library RBC) [RBC-R15]
binding result (human albumin): no binding
binding result (rabbit albumin): no binding

DSCGDLLRLGLECWA (phage clone, Library RD) [RD-R6]
binding result (human albumin): no binding
binding result (rabbit albumin): no binding

MFDLCLPKWGCLWGN (phage clone, Library RBC) [RBC-R12]
binding result (human albumin): no binding
binding result (rabbit albumin): no binding

WEDLCLPDWGCLWED (phage clone, Library RBC) [RBC-R5]
binding result (human albumin): no binding
binding result (rabbit albumin): no binding

EWDVCLPHWGCLWDG (phage clone, Library RBC) [RBC-R16]
binding result (human albumin): no binding

QRQIMDFCLPHWGCLWGDGF (phage clone, Library RB) [RB-R10]
binding result (human albumin): no binding
binding result (rabbit albumin): no binding

ERQMEDFCLPQWGCLWGDGV (phage clone, Library RB) [RB-R1]
binding result (human albumin): no binding
binding result (rabbit albumin): no binding

DICLPVWGCLW (phage clone, Library RC) [RC-R12]
binding result (human albumin): no binding
binding result (rabbit albumin): no binding

SEDFCLPVWGCLWED (phage clone, Library RBC) [RBC-R9]
binding result (human albumin): no binding
binding result (rabbit albumin): no binding

DFDLCLPDWGCLWDD (phage clone, Library RBC) [RBC-R10]
binding result (human albumin): no binding
binding result (rabbit albumin): no binding

QRQVVDFCLPQWGCLWGDGS (phage clone, Library RB) [RB-R14]
binding result (human albumin): no binding
binding result (rabbit albumin): no binding

QSQLEDFCLPKWGCLWGDGF (phage clone, Library RB) [RB-R15]
binding result (human albumin): no binding

KMGRVDFCLPKWGCLWGDEL (phage clone, Library RB) [RB-R13]
binding result (human albumin): no binding

EEDVCLPVWGCLWEG (phage clone, Library RBC) [RBC-R20]
binding result (human albumin): no binding
binding result (rabbit albumin): no binding

WDDICFRDWGCLWGS (phage clone, Library RBC) [RBC-R7]
binding result (human albumin): no binding
binding result (rabbit albumin): no binding

DICLPVWGCLW (phage clone, Library RC) [RC-R10]
binding result (human albumin): no binding
binding result (rabbit albumin): no binding

MDDICLHHWGCLWDE (phage clone, Library RBC) [RBC-R1]
binding result (human albumin): no binding
binding result (rabbit albumin): no binding

KSRMGDFCLPEWGCLWGDEL (phage clone, Library RB) [RB-R9]
binding result (human albumin): no binding
binding result (rabbit albumin): no binding

FEDFCLPNWGCLWGS (phage clone, Library RBC) [RBC-R4]
binding result (human albumin): no binding
binding result (rabbit albumin): no binding

QGGMGDFCLPQWGCLWGEDL (phage clone, Library RB) [RB-R17]
binding result (human albumin): no binding

VWDLCLPQWGCLWDE (phage clone, Library RBC) [RBC-R11]
binding result (human albumin): no binding
binding result (rabbit albumin): no binding

NWDLCFPDWGCLWDD (phage clone, Library RBC) [RBC-R8]
binding result (human albumin): no binding
binding result (rabbit albumin): no binding

DICLPVWGCLW (phage clone, Library RC) [RC-R1]
binding result (human albumin): no binding
binding result (rabbit albumin): no binding
